Laboratory results: patent US20040265235A1, “Magnetic resonance contrast-enhancing agents and method for detecting and imaging artherosclerotic plaque” (priority 2003, published 2004)

Assay: MR T1 relaxivity of contrast agents
Type: physicochemical
Settings: globular versus elongated conformation
Protocol: A low relaxivity or long relaxation time is associated with an elongated molecule such as a highly substituted Gd-DTPA-PLL, in which the Gd can rotate rapidly, having a relaxivity of about 8 sec^−1 mM^−1. When the relaxivity of a peptide contrast agent was high, the uptake coefficient of such an agent was invariably low, evidently due to the absence of a reptation movement of the contrast agent molecule, resulting in the exclusion of the contrast agent from narrow passages. Thus, it is important to establish that the peptides being compared for optimum length are all of the same conformation. Relaxivity values of the Gd-PLL for various lengths were tested to be between 7.5 and 10 for average chain length of 92, 219, 455, 633, and 1163 residues, in a 2 Tesla magnet (2 T) at 80 MHz and 23° C.

## albumin
  relaxivity: about 15 sec^−1 mM^−1
